The RNAGym collection of RNA variant scans (doi:10.1073/pnas.2313332121)

B1: TPR t1 (parent)
chain: GACCAAUCUGCCCUCAGAGCUCGAGAACAUCUUCGGAUGCAGAGGAGGCAGGCUUCGGUGGCGCGAUAGCGCCAACGUCCUCAACCUCCAAUGCAUCCCACCACAUGAUGAUGCCUGAAGAGCCUUGGUUUUUUG

Variants of: B1
Assay: polymerase ribozyme fitness, log enrichment relative to wild type (log ratio); higher = more active; in vitro selection for triplet polymerase activity
Summary of the method: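 Each subunit of a heterodimeric triplet polymerase ribozyme was represented by a PCR-built, transcribed mutant library that underwent triplicate single-round in vitro selection with frozen incubation at −7 °C. Extended constructs were recovered by gel excision, streptavidin-bead capture and RT-PCR, and Illumina sequencing of input and output libraries kept genotypes with ≥10 input reads and ≥1 read per output. Fitness is the logarithm of genotype enrichment relative to wild-type enrichment, from inverse-variance-weighted replicate averages, with a logarithm base of 2.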

Row | Variant | polymerase ribozyme fitness (log ratio)
1 | A18C C72U | -2.49
2 | G17C G61A C82A | -4.03
3 | G17U A18U G39U C123A | -4.71
4 | A18U C28U G51A U59G G117C | -6.92
5 | G17A C40U G60A C79G | -6.54
6 | G19A C73U C86U U96A G110A | -5.32
7 | G17C G35A C98U G120A | -5.26
8 | A18C G61A | -2.53
9 | G17A C20G | -4.82
10 | G17A C20U | -3.63
11 | A18C G120A | -1.48
12 | A18U G45U G63U G71C G110C C114G C124U | -7.92
13 | A18G A24G C34U G61A A111U G128U G135U | -6.04
14 | G17A A18C C62G G120C | -4.41
15 | A18G A24G U55A | -5.14
16 | A18C G52A | -2.7
17 | A18U U96C U112A | -1.44
18 | A18C C20U C114A | 0.845
19 | A18U C40U | -3.83
20 | A18C C20U G36U C56G | -3.57
21 | A18C U32C A95C G117A U129C | -3.97
22 | A18G G42C C99A | -5.32
23 | A18G U131A | -2.69
24 | G19A U87G A105C A111C | -4.37

Row | Variant | polymerase ribozyme fitness (log ratio)
25 | G19C C49G U92A U125G | -4.13
26 | A18U C86G G113U | -4.47
27 | A18G C31G C88U C114G | -5.82
28 | A18G C56G C114A | -4.99
29 | A18U C20U A50C G69U | -1.33
30 | A16U G71U | -0.858
31 | A18U G25C G57C C89G U92G C115U | -5.83
32 | G17C C34G C99U G110U G127U | -5.7
33 | G17U U112C | -0.756
34 | A18U A26G C40G A43U G69A C97A U112A | -7.04
35 | A18G G45U C102U U109C U116G | -5.64
36 | G19U A41G G63U | -4.85
37 | G19U A41C U92A C94U C115U U133G | -5.87
38 | A16U G60A C62U U112C | -0.401
39 | G19A C62U G93U | -4.23
40 | G19U A50U | -3.48
41 | A18U G60U U130C | -1.84
42 | G19A A118G C124G | -1.63
43 | A18G U132A | -3.07
44 | G17U G61A U81G C101G G117C G128U | -7.2
45 | A18C A27G | -5.05
46 | G19A G60A G93U | -3.84
47 | G17A U21A G44C A46C C73G | -5.53
48 | A18U C79A | -4.95

Row | Variant | polymerase ribozyme fitness (log ratio)
49 | G19A C85U | -3.47
50 | G17A G57C | -2.86
51 | G17C C40U A43U U130G | -3.78
52 | G19A G71C C124A | -2.56
53 | A18U A37C C101A | -4.02
54 | A18U U133G | -1.41
55 | A18C C53A C62U C72U C85G G122U | -4.78
56 | A18U C40G C114A | -3.02
57 | G19C G45A G60A U106A | -4.35
58 | G17U C40G A90G A95U C115G | -3.65
59 | G17C G120A | -3.31
60 | G17A C73U U112A A119U C123U U125C | -2.9
61 | A18G C89A C114G U133A | -6.53
62 | G19C G71U C114A G128A | -2.59
63 | G17A G61A C124U | -2.13
64 | A18C G44U | -3.35
65 | G19A G61A C104A G107A A121G | -5.44
66 | G19A G93U | -4.24
67 | G19U C20U C72A U131A | -3.4
68 | A18C G47A | -2.19
69 | G17C C85G | -6.06
70 | G19C G42U C62U C76G U92G | -4.02
71 | A18U C82A U92A | -4.27
72 | A18C G71U | -3.18

Row | Variant | polymerase ribozyme fitness (log ratio)
73 | A18C A37C G127U U129A | -3.43
74 | A18G G39U C53U G71A G120A | -4.4
75 | G17C C88U | -4.49
76 | G19A C88A A95C C114G | -4.8
77 | G19C C40U G93U C114G G122A | -0.927
78 | A18C A27G A111U G128C | -6.38
79 | G19A A43U C53U C56A | -3.04
80 | G17A G19U U55A C82A C114A | -3.12
81 | A18C U55C C62U | -3.73
82 | G17A G48U G57C G60A | -2.98
83 | G17U C102U | -4.64
84 | G17U C49U | -2.42
85 | G19C G61C C88A | -4.49
86 | G17A A41C G117U | -3.91
87 | G19A C49G G60U C85U A111C | -2.03
88 | A18G U67A C102U C123A | -5.64
89 | G17U C62G | -3.93
90 | A18C C28U | -5.11
91 | G17U C101A G107U G120C G127A U132C | -6.51
92 | G17U G69U A84C | 0.342
93 | A18C C72G C124A U129A | -3.56
94 | G19A G61A U132C | -2.94
95 | G17A G52A A118G | -4.15
96 | G17A U38A U59G C115U G117U | -3.04

Row | Variant | polymerase ribozyme fitness (log ratio)
97 | G17A C62A U87C | -6.24
98 | G17U A37C | -2.42
99 | G17U A37U | -2.44
100 | G17U G39U C88U A91C G117U | -3.62
101 | G17C A41U G51U C64U C104U G120A | -6.91
102 | A18G A50U C56A C79A C101U A118U C124U | -7.24
103 | A18U A43U A83G C89G G110U U125A | -5.8
104 | A16U G113U | -4.23
105 | G17C G69U G122A | -2.46
106 | A18U G44U C88G C89A | -2.55
107 | A18C C104A | -4.52
108 | G17A G36U U112G | -4.13
109 | A16U U78A U92A | -4.78
110 | A18G A74C C79U | -4.7
111 | A18U G45U U87C A90G | -2.54
112 | G19U C20G G57U C70G C85U C101U U112G | -6.53
113 | G17U U21A U112C C123A | -3.07
114 | G19C C86G A121G | -0.947
115 | A18U G60A | -2.24
116 | G17C C80G C124A | -8.59
117 | G19A G44U G48C C49A C53A G69U C88G C104A G135C | -2.97
118 | G19U A43U G47U U112A G120A | -2.08
119 | G19A G71A | -3.99
120 | G17A C56A | -2.66

Row | Variant | polymerase ribozyme fitness (log ratio)
121 | A18U A27U C98A G110A | -7.19
122 | G17U U21A | -3.26
123 | A18G G57U U59C C62A C94U G117U | -5.27
124 | G17A C49G U55C A75U C76U G113U | -7.46
125 | A18C A26G G71A G93A U112C G122A | -4.45
126 | G17U C72U U130A | -2.54
127 | G17C G61U | -3.71
128 | A18U C56U C94U A111C C114U | -5.39
129 | G17C G63A G77U U81A A119G A121C | -5.23
130 | G19U A26U C64U U78C C114A | -1.82
131 | G17U G23U A74U C123G | -5.53
132 | G19A G71C G127C | -4.23
133 | G17C C28U G61U C85A G110A G120C | -1.25
134 | A16U G107U C124G | -4.06
135 | A16U G36A A41U C73A | -4.17
136 | G17A C94G | -4.81
137 | A18U C40A C70A A121C | -5.25
138 | G17U C34A | -3.65
139 | G19C G48U | -2.5
140 | A18C C53G G60U U116G | -2.87
141 | A18G G36A U116C A118G | -2.17
142 | A18U C86A C89U C123U | -3.07
143 | A18G C64U G113A | -1.65
144 | A16U G45C C56G C64U A83C | -4.1

Row | Variant | polymerase ribozyme fitness (log ratio)
145 | G19A A95U C101U | -3.88
146 | A18G C80U U92C G120U U129C U130A | -6.4
147 | G19A G61A U125G | -2.54
148 | A16U G42U | -2.52
149 | G17U C70U | -3.3
150 | G17C C85G C86U A91U U112G | -6.74
151 | A18G G93A | -3.21
152 | G17U C70U U87A | -4.04
153 | G19C U87A | -2.58
154 | A18C G35A U59C U112A | -6.14
155 | A18G G39C | -4.37
156 | A18C C64U U130C | -2.08
157 | G17A A46U | -4.52
158 | A18U U54G C114U | -4.87
159 | A18G G39C C94A U112G C124G | -5.87
160 | G19A G42U G71U G122A | -3.83
161 | A18C C20A U54A U96A | -3.05
162 | G17A G47A A111U | -5.85
163 | A18C C40U A41G C56G C70U | -4.84
164 | A18G U59A A111U | -6.09
165 | G17C G19U G63U A91C C124A | -5.7
166 | G17C G42A A74G A84C A91U | -4.35
167 | G17C C49A C72U C82U C114U | -4.65
